# Measured values as given in paper PMC2346476.
# B1: recombinant His6-tagged Drosophila Uri (pET-28m), bacterially expressed (natural protein)
# chain: MDRREDALLQALQTNASETERWEAFKRDNESTIRNLDKFAKNLSVEVMVPIGRKALMPGELIHTNELLVGHYEGYFSACSSHKAKEICQYRLKLAEEQLKKLAVENDLWQKKLHTPFAEGAVPSGDQVEIVEDFNEESHNKWLAEHRKRMRQQKQKERLEREAEPVKKDNEVLRKLEEREMMEELGLDPDNIDEDQLHDMLNQEPLKSTNESSPKSLTQEEEDELWKKLEAEEQNEADELSSEAEESLKTTDNLVRQLMSGETETPSSKKRTAGTNRNVEIQDPISEDDGDDDDEGDQEEEVRTIREQMSLLPNEDREPFLRAQLHVLKAKMRKIQKVNFISDELIHLMNVVVMLEDDLQDLVFEQELEASEEEEEVVENNHLPDEPSKELSTVSESSTNKRRISFALDDEKLEFRREETVAEMLPNAKKNSRDIIKLNAPLKPAGDPQPASIKTKRQTTQDILQKVERNIEFVKENQSVQDFDLLNRIMEESTGLINTLHISFTHSGAIPSPSSDQSDGIPGKPSDFYVRYEKDRARPNDSFPIYVNGFEGEEHVKVPIMSEAARGSAYEDPRSQFSKPNSSEICFTHSGSITPTSNDQSDDIPGNPFDFYEKYEKDRAKFSKSNSSEGDATDPESATKSILRNKSAVDLEPHNVNQQPKKGRKVRNQKKKERTLDDDLRDMSAYQKVMHDLVEKEPTAPEPLPPGKFIDSHAPKKRVSRFKEQRALNKT
# Target: recombinant His6-tagged Drosophila PP1α87B (pET28a) (Drosophila) (UniProt P12982)
# Sequence of UniProt P12982 (P12982 whole entry): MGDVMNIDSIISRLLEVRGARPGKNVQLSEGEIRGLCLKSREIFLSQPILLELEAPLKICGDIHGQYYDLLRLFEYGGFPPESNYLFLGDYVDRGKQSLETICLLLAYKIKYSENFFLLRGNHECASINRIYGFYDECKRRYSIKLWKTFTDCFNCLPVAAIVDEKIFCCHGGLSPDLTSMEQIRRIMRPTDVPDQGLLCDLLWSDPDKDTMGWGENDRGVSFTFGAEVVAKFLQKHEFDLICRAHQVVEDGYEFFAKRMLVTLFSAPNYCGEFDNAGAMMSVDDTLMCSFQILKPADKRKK
binder,measurement,value
B1,inhibition of the myelin basic protein phosphatase activity of recombinant PP1α87B by Uri; IC50 of Uri relative to its IC50 against PP1β9C,25 fold
